Test results from the supplement of paper PMC11780869.

Test system: Bacillus subtilis
Assay: cleaved RNA product abundance (RNA/gDNA barcode ratio) relative to median wild-type variant (ratio to wild type); higher = more accumulation of the downstream cleavage product
Procedure, shortened: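 Truncated aprE or tetM reporter mRNAs with barcoded RNase Y cleavage-site windows, mutagenized from oligos at a 9% error rate, sat in the B. subtilis chromosome. Cells grew in LB at 37°C from OD600 0.0003 to 0.3. Gel-selected cleaved RNA was reverse transcribed and its barcodes sequenced with those from genomic DNA, collapsing by UMI. Cleaved product abundance equals the RNA:gDNA barcode ratio per construct over the median construct with the unmutated site.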

[1] = experiment (reporter, strain, medium): exp 4a: truncated aprE reporter, strain BJT201 with 2% xylose (RNase J1 expressed), cleavage site: cggR-gapA (positions -7 to +36 mutated)
[2] = experiment (reporter, strain, medium): exp 2b: truncated aprE reporter, strain BJT200, cleavage site: cggR-gapA (positions -7 to +36 mutated)
[3] = experiment (reporter, strain, medium): exp 8a: truncated aprE reporter, strain BJT201 with 2% xylose (RNase J1 expressed), cleavage site: glnRA (positions -5 to +31 mutated)

Row | Sequence | cleaved RNA product abundance [1] | cleaved RNA product abundance [2] | cleaved RNA product abundance [3]
1 | ACAGACGAAGGAGCCGCAAAGAAGTCATGAAGGGATGAATAATCCCTCAATATAAATATCTCTCACTTATTTAAA | 0.325 | – | –
2 | ACAGACGAAGGAGCCGCAAAGAAGTTATTAAGGGCTGAAAAATCCCTCAATATAAATATCTCTCACTTATTTAAA | – | 0.212 | –
3 | ACAGACGAAGGAGCCGCAAAGAAGTTATTAAGGGATGAATAATGCCTAAATATAAATATCTCTCACTTATTTAAA | 0.149 | – | –
4 | ACAGACGAAGGAGCCGCAAAGAAGTTATTAAGGGATGAATAATCACTCAATATATATATCTCTCACTTATTTAAA | 0.132 | – | –
5 | CGACATGTCCCGCTTCTTTCATTAATCCGTTAGCAACTGTTTTACTATATAAATTTACCTTTTAAGAGGAGGAAT | – | – | 0.596
6 | ACAGACGAAGGAGCCGCAAAGAAGTTATTAAAGCATGAATAATCCCTCAATATAAATATCTCTCACTTATTTAAA | 0.11 | 0.119 | –
7 | ACAGACGAAGGAGCCGCAAAGAAATTATTCAGGGATGAATAATCCCTCAATATAAATATCTCTCACTTATTTAAA | 0.747 | 0.575 | –
8 | ACAGACGAAGGAGCCGCAAAGAAGTTATTAAGGGATGAATAATCCCTCAAGATAAATATTTCTCACTTATTTAAA | 0.27 | – | –
9 | ACAGACGAAGGAGCCGCAAAGAAGTTATTAAGGGAAGAATAGTCCCTCAATATAAATATCTCTCACTTATTTAAA | 0.594 | – | –
10 | CGACATGTCCCGCTTCTTTCATTAATCCGTTCGCAACTGTTTTGCTATATACATTTACGTTTTAAGAGGAGGAAT | – | – | 0.342
11 | ACAGACGAAGGAGCCGCAAAGAAGTTATTAAGGGATGAATAATCACTCACTATAAATATCTCTCACTTATTTAAA | 0.0806 | 0.0967 | –
12 | ACAGACGAAGGAGCCGCAAAGAAGTTATTAAAGGATGAATAATCCCTCAATATAGATATCTCTCACTTATTTAAA | 0.0996 | – | –
13 | ACAGACGAAGGAGCCGCAAAGAAGTAATTAAGGGATGAATAATCCTTCAATATAAATATCTCTCACTTATTTAAA | 0.187 | 0.188 | –
14 | CGACATGTCCCGCTTCTTTCATTAATACGTTAGCAACTGTTTAGCTATATACATTTACCTTTTAAGAGGAGGAAT | – | – | 0.376
15 | ACAGACGAAGGAGCCGCAAAGAAGTTATTAAGGATGAATAATCCCTCAATATAAATATCTCTCACTTATTTAAAG | 0.294 | – | –
16 | CGACATGTCCCGCTTCTTTCATTAATCCGTTAGAAACTGTTTTGCTATATACATTTACATTTTAAGAGGAGGAAT | – | – | 0.34
17 | ACAGACGAAGGAGCCGCAAAGAAGTTATTAAAGCATTAATAATCCCTCAATATAAATATCTCTCACTTATTTAAA | 0.134 | – | –
18 | ACAGACGAAGGAGCCGCAAAGAAGTTATAAAGGGATGAATAATCCCTCAATAAAAATATCTCTCACTTATTTAAA | 0.0461 | 0.125 | –
19 | ACAGACGAAGGAGCCGCAAAGAAGTTATTAAGGGATGAATAATACCTCAATATAAAAATCTCTCACTTATTTAAA | 0.179 | 0.144 | –
20 | CGACATGTCCCGCTTCTTTCATTAATCAGTTAGCAACTGTTTTGCTATATACATTTACCTTTTAAGAGGAGGAAT | – | – | 0.763
21 | CGACATGTCCCGCTTCTTTCATTAATCCTTGAGCAACTGTTTTGCTATATACATTTACCTTTTAAGAGGAGGAAT | – | – | 0.57
22 | ACAGACGAAGGAGCCGCAAAGAAGTTATTAAGGTATGAATAATCCCTCAATATAGATATCTCTCACTTATTTAAA | 0.08 | – | –

Row | Sequence | cleaved RNA product abundance [1] | cleaved RNA product abundance [2] | cleaved RNA product abundance [3]
23 | ACAGACGAAGGAGCCGCGAAGAAGTTATTAAGGGATGAATAATCACTCAATATAAATATCTCTCACTTATTTAAA | 0.122 | – | –
24 | CGACATGTCCCGCTTCTTTCATTATTCCGTTAGCAACTGTTTCGCTATATACATTTACCTTTTAAGAGGAGGAAT | – | – | 0.509
25 | ACAGACGAAGGAGCCGCATAGAAGTTATTAAGGGATGAATAATCCCTCAATAGAAATATCTCTCACTTATTTAAA | 0.149 | – | –
26 | CGACATGTCCCGCTTCTTTCATTAATCCGGTAGCAACTGTTATGCTATATACATTTACCTTTTAAGAGGAGGAAT | – | – | 1.02
27 | ACAGACGAAGGAGCCGCAAAGAAGTTATTAAGGGATGAATAATCCGTCAATATCAATATCTCTCACTTATTTAAA | 0.15 | – | –
28 | ACAGACGAAGGAGCCGCAAAGAAGTTATTAAGGGATGAAAAATCCCTCAATATCAATATCTCTCACTTATTTAAA | 0.0918 | – | –
29 | ACAGACGAAGGAGCCGCAAAGAAGTTTTTATGGGATGAATAATCCCTCAATATAAATATCTCTCACTTATTTAAA | 0.323 | – | –
30 | ACAGACGAAGGAGCCGCAAAGAAGTTATTAAGGGATGATGAATCCCTCAATATAAATATCTCTCACTTATTTAAA | 0.766 | – | –
31 | ACAGACGAAGGAGCCGCAAAGAAGTTCTTAAGGGATGAATAATCCCTAAATATAAATATCTCTCACTTATTTAAA | 0.193 | 0.236 | –
32 | ACAGACGAAGGAGCCGCGAAGAATTTATTAAGGGATGAATAATCCCTCAATATAAATATCTCTCACTTATTTAAA | 0.561 | – | –
33 | CGACATGTCCCGCTTCTTTCATTAATCCGTTAGCAACTGTTTTGCAATATACATTTAGCTTTTAAGAGGAGGAAT | – | – | 0.72
34 | ACAGACGAAGGAGCCGCAAAGAAGTTATGAAGGGATGAATAACCCCTCAATATAAATATCTCTCACTTATTTAAA | 0.419 | – | –
35 | ACAGACGAAGGAGCCGCAAAGAAGTTATTAAGGGATGACTAATCCCTCAATATATATATCTCTCACTTATTTAAA | – | 0.293 | –
36 | CGACATGTCCCGCTTCTTTCATTAATCCGTTAACAAATGTTTTGCTATATACATTTACCTTTTAAGAGGAGGAAT | – | – | 0.287
37 | ACAGACGAAGGAGCCGCAAAGAAGTTATTAATGGATGAATTATCCCTCAATATAAATATCTCTCACTTATTTAAA | 0.0827 | 0.112 | –
38 | CGACATGTCCCGCTTCTTTCATTAATCCGTTATCAACTGTTTTAATATATACATTTACCTTTTAAGAGGAGGAAT | – | – | 0.415
39 | ACAGACGAAGGAGCCGCAAAGAAGTTATTAAGTTATGAATAATCCGTCAATATAAATATCTCTCACTTATTTAAA | – | 0.078 | –
40 | CGACATGTCCCGCTTCTTTCATTATTCCGTTAGCAACTGTTTTGCTATATACATTTGCCTTTTAAGAGGAGGAAT | – | – | 0.599
41 | ACAGACGAAGGAGCCGCAAAGAAGTTATTAAGGGATAAATAATCTCTCAATATAAATATCTCTCACTTATTTAAA | 0.355 | – | –
42 | ACAGACGAAGGAGCCGCAAAGAAGTTATTAAGGGATCAATAATGCCTCAATATAAATATCTCTCACTTATTTAAA | 0.138 | 0.0953 | –
43 | ACAGACGAAGGAGCCGCAAAGTAGTTATTAAGGGATGAATAATCCCTCAATACAAATATCTCTCACTTATTTAAA | 0.0777 | – | –
